# Reference: the supplement of paper PMC10065799, “High-throughput profiling of sequence recognition by tyrosine kinases and SH2 domains using bacterial peptide display” (eLife, 2023)
# How the values were obtained:
# [1] = target: EPHB1 (UniProt P54762); experiment: phosphorylation enrichment, bacterial display (enrichment ratio); higher = better substrate or ligand; peptides without Tyr show the background
# [2] = system: Fer (mouse); experiment: as above
# [3] = target: FGFR1 (UniProt P11362); experiment: as above
# [4] = target: Fyn (UniProt P06241); experiment: as above
# [5] = target: FGFR3 (UniProt P22607); experiment: as above
# [6] = system: AncSZ; experiment: as above
# [7] = target: MERTK (UniProt Q12866); experiment: as above
# [8] = target: Fes (UniProt P07332); experiment: as above
# [9] = system: c-Abl (mouse); experiment: as above
# [10] = target: Jak2 (UniProt O60674); experiment: as above
# [11] = target: Hck (UniProt P08631); experiment: as above
# [12] = target: EPHB2 (UniProt P29323); experiment: as above
# [13] = system: c-Src; experiment: as above
# [14] = target: SHP2-C SH2; experiment: SH2 binding enrichment of the phosphorylated peptide, bacterial display (enrichment ratio); higher = better substrate or ligand; peptides without Tyr show the background
# [15] = target: c-Src SH2; experiment: as above
# [16] = target: Grb2 SH2 (UniProt P62993); experiment: as above
# 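Throughout, for SH2 binding enrichment of the phosphorylated peptide, bacterial display: peptide library displayed on the E. coli surface as eCPX fusions, selected cells deep-sequenced, score is each peptide's frequency after selection divided by its frequency in the input.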
# 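Throughout, for phosphorylation enrichment, bacterial display: 11-residue human phosphosite peptides and single-mutation variants displayed on the E. coli surface, counted by deep sequencing, each peptide's frequency after selection divided by its frequency in the unselected input library; frequency after pTyr selection over input frequency; kinase dosed for 20-30% of maximal phosphorylation in three min.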
# Jak2, sequence (O60674 whole entry, looked up): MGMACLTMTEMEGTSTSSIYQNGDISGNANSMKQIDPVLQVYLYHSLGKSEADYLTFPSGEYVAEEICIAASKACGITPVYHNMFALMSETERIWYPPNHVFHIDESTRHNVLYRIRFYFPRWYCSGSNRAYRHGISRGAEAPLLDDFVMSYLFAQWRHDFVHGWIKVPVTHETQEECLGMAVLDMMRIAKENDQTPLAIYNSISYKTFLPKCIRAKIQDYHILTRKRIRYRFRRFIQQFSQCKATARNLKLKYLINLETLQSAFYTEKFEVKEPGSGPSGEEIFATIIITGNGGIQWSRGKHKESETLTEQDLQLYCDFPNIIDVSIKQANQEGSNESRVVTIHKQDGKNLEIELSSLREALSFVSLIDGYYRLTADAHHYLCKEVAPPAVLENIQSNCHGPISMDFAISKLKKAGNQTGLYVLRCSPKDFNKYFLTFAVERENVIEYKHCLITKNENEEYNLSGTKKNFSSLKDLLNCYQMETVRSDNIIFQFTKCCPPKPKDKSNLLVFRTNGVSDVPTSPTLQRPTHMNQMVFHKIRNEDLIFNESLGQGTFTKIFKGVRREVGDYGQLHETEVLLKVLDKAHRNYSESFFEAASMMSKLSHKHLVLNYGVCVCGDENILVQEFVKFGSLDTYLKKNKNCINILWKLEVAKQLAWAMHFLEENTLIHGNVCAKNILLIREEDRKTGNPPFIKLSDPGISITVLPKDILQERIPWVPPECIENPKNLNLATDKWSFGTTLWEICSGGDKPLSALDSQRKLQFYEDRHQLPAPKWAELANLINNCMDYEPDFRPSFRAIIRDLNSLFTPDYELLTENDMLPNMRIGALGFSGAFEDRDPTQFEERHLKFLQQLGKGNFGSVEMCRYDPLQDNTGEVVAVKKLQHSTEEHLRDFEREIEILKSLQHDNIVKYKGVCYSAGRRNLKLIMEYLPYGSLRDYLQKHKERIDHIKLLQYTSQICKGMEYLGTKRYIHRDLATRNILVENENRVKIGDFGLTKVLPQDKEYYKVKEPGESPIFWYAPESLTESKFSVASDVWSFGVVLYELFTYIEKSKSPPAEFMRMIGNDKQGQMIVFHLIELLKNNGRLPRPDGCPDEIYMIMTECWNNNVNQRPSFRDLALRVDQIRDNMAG
# EPHB1, sequence (P54762 whole entry, looked up): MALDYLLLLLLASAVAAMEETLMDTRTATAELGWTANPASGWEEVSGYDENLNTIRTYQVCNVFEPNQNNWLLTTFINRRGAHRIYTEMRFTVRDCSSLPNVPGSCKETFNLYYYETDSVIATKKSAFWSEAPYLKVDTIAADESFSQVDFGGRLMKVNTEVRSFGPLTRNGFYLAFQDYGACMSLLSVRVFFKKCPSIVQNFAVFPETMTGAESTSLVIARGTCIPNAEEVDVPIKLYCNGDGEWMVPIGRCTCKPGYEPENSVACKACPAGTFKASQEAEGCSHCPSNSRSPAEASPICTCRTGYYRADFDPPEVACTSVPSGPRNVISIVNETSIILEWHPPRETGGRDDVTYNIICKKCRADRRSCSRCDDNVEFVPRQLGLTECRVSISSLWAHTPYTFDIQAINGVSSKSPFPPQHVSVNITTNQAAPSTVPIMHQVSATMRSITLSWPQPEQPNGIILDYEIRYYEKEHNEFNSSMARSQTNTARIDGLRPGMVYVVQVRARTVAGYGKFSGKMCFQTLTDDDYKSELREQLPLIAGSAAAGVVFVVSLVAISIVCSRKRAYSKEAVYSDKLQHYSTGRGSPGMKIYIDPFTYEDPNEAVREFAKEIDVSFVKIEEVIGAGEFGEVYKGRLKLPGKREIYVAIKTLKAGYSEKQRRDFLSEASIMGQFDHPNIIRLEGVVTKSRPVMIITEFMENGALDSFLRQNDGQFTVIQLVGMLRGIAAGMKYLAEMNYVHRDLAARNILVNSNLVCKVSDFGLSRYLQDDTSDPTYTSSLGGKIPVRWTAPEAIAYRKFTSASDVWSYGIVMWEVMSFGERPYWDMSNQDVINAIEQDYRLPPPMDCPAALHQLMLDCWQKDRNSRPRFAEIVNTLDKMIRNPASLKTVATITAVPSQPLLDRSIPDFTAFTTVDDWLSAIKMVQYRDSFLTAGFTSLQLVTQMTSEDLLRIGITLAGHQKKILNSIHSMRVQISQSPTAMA
# Fes, sequence (P07332 whole entry, looked up): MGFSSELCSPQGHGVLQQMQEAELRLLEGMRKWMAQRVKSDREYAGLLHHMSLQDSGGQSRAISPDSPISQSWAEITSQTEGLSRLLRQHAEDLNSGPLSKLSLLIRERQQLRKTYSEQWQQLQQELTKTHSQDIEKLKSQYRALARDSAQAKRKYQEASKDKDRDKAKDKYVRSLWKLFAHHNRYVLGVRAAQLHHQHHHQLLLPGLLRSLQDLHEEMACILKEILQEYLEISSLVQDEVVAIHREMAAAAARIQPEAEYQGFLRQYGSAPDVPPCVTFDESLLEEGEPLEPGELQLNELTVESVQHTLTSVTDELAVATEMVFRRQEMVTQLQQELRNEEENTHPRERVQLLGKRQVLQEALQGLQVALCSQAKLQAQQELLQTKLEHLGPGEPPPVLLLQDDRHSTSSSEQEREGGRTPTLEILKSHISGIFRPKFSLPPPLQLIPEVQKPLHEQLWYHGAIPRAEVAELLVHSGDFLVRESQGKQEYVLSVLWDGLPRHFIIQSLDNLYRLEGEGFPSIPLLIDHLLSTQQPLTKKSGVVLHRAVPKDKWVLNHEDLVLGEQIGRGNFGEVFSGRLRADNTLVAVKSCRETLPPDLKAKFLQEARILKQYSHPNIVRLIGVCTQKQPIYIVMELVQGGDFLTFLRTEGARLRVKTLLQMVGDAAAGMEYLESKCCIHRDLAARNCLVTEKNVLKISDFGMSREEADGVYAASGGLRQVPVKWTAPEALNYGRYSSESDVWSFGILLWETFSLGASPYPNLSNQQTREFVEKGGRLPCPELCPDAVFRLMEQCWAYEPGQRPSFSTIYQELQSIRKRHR
# Fyn, sequence (P06241 whole entry, looked up): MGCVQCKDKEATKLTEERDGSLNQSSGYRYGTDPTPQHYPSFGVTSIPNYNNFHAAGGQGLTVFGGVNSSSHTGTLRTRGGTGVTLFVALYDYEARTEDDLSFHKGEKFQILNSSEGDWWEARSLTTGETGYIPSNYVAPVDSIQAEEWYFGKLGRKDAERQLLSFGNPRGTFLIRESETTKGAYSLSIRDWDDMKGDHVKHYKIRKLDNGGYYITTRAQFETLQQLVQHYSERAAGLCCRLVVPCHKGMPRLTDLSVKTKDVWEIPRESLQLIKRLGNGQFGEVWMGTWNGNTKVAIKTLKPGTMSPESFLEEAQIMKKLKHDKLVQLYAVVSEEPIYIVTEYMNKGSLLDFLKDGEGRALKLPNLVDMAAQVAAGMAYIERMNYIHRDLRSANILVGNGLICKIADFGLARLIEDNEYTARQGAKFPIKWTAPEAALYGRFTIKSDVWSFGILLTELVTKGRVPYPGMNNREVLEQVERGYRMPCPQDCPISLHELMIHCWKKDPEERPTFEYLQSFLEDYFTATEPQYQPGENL
# Grb2 SH2, sequence (P62993 whole entry, looked up, the tested form may be a part): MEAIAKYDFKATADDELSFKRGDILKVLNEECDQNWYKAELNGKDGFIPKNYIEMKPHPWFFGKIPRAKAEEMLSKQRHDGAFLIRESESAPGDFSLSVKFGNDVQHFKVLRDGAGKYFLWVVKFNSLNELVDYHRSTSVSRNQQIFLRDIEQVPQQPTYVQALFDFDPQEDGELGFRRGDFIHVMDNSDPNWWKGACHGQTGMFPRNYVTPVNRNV
# Hck, sequence (P08631 whole entry, looked up): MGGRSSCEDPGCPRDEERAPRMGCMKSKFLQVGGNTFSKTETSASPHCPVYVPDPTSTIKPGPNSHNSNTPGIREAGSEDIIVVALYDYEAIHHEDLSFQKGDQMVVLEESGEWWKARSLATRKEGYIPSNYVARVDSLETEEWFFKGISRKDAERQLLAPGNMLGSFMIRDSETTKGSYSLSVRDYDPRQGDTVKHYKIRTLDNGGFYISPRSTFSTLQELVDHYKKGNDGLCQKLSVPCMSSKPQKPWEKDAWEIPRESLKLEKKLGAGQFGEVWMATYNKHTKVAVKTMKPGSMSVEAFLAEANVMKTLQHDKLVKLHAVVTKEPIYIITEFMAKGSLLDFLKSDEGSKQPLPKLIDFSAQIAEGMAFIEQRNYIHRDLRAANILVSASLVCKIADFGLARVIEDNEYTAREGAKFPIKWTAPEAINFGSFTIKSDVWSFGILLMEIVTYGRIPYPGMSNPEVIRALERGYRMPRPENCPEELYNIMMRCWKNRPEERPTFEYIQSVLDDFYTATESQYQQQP
# FGFR1, sequence (P11362 whole entry, looked up): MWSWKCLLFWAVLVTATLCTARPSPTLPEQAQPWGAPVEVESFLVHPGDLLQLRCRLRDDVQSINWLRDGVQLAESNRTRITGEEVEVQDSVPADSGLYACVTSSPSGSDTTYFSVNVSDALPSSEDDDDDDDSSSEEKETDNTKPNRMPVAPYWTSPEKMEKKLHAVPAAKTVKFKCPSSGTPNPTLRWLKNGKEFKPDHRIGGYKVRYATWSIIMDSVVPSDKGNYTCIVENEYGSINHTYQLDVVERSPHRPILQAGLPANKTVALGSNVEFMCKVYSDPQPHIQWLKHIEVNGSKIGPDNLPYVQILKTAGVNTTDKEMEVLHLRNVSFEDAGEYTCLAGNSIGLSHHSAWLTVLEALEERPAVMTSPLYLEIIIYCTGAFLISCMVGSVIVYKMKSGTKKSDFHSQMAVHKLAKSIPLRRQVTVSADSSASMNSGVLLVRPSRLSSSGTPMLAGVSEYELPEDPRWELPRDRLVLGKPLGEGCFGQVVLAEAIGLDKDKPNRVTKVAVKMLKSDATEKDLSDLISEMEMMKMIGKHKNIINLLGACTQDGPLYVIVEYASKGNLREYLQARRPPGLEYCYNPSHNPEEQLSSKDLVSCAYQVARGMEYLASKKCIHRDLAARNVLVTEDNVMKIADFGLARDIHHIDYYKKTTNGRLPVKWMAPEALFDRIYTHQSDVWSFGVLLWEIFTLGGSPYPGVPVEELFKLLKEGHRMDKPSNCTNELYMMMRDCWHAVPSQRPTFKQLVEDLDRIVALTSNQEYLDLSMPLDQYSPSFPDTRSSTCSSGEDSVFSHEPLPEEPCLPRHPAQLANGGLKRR
Sequence,phosphorylation enrichment [1],phosphorylation enrichment [2],phosphorylation enrichment [3],phosphorylation enrichment [4],phosphorylation enrichment [5],phosphorylation enrichment [6],phosphorylation enrichment [7],phosphorylation enrichment [8],phosphorylation enrichment [9],phosphorylation enrichment [10],phosphorylation enrichment [11],phosphorylation enrichment [12],phosphorylation enrichment [13],SH2 binding enrichment [14],SH2 binding enrichment [15],SH2 binding enrichment [16]
KPLMPCMRFSR [SMARCE1_Y73_Y73C_YF],0.39,0.443,0.393,0.466,0.502,0.92,0.506,0.916,0.88,0.707,0.439,0.448,0.469,0.912,0.477,0.858
GTCGGYCSVLG [RAB18_Y202_A198T],0.344,0.389,0.37,0.397,0.488,0.532,0.527,0.488,0.401,0.451,0.388,0.353,0.42,2.08,8.16,0.842
TFTVSYLPDMS [FLNC_Y1602_YF],0.631,0.436,0.607,0.495,0.735,1.08,0.442,1.28,0.835,0.975,0.48,0.599,0.478,0.799,0.594,0.792
GMTRNYIIFIE [BCO2_Y294],0.649,0.447,0.599,0.567,0.745,0.96,0.487,0.921,0.49,0.885,0.563,0.67,0.498,1.32,1.18,1.34
EKDSNYCLCRT [ASIC2_Y357],0.551,0.442,0.556,0.569,0.605,0.772,0.601,0.883,0.573,0.763,0.513,0.634,0.506,0.789,0.778,0.976
GRDQPYSGAGD [TYRO3_Y828],0.293,0.31,0.559,0.623,0.357,0.442,0.383,0.765,0.359,0.508,0.445,0.457,0.356,0.86,0.567,0.894
FALAEYTEVKT [ALDH1A3_Y497_YF],0.59,0.567,0.894,0.719,0.903,1.03,0.45,1.11,0.757,0.765,0.635,0.475,0.621,0.506,1.9,0.861
MGSYNYLGFAR [SPTLC2_Y178],2.42,0.707,1.3,0.758,1.04,0.831,6.56,1.05,0.956,2.89,2.99,0.949,1.1,3.37,2.54,0.804
GMRHGHGVRQS [JPH2_Y141_Y141H],0.775,0.529,0.471,0.419,0.696,0.646,0.462,0.803,1.28,0.975,0.495,0.45,0.529,1.31,1,1.27
MCDSHYLESRS [CLK1_Y56],0.495,0.473,0.509,0.449,0.718,0.578,0.426,0.81,0.493,0.618,0.35,0.535,0.424,0.719,0.675,1.04
KLPYPYDDPFS [GPX2_Y127],0.458,0.434,0.507,0.534,0.745,1.09,0.515,1.06,0.705,0.954,0.589,0.532,0.546,0.544,3.58,0.97
ISSLCYELLEE [TRPC6_Y896_R895C],0.986,0.924,0.748,0.597,1.23,2.07,0.777,1.66,1.13,1.36,0.747,0.654,0.928,0.769,0.701,0.843
LEYNEYFRDLN [HPRT1_Y198_D194E],1.18,0.804,1.89,1.01,1.75,2.6,0.605,2.09,1.3,2.17,0.847,0.975,1.14,0.592,0.451,0.998
ARGMEYLAEQK [MST1R_Y1198_G1195S],0.488,0.384,0.39,0.491,0.826,0.807,0.435,0.914,0.599,0.77,0.46,0.47,0.381,0.603,0.524,0.741
RDMNAYIRPSP [MMAA_Y207],0.444,1.19,0.804,1.01,1.02,1.03,1.02,1.24,1.32,1.57,0.8,1.02,0.971,0.693,0.581,0.804
AVHPGYGFLSE [PCCA_Y143],0.46,0.545,0.662,0.487,1.12,0.663,0.527,0.99,0.692,0.82,0.666,0.672,0.47,0.523,0.466,0.706
IKKFKYRIEEH [GJA1_Y137_G138R],0.392,0.361,0.402,0.398,0.495,0.653,0.345,0.83,0.449,0.717,0.336,0.389,0.363,0.77,0.557,0.847

Sequence,phosphorylation enrichment [1],phosphorylation enrichment [2],phosphorylation enrichment [3],phosphorylation enrichment [4],phosphorylation enrichment [5],phosphorylation enrichment [6],phosphorylation enrichment [7],phosphorylation enrichment [8],phosphorylation enrichment [9],phosphorylation enrichment [10],phosphorylation enrichment [11],phosphorylation enrichment [12],phosphorylation enrichment [13],SH2 binding enrichment [14],SH2 binding enrichment [15],SH2 binding enrichment [16]
KMKGEYYRYLA [YWHAG_Y130_D129E],0.639,0.409,4.78,0.607,3.14,0.981,0.957,0.961,1.34,1.68,1.09,0.717,1.07,1.16,1.25,1.65
RLGNQYVNVMN [SLC3A1_Y461],2.21,0.513,0.541,0.471,0.991,0.619,0.352,0.727,0.524,0.64,0.446,0.59,0.508,2.03,2.79,15.4
HTVEDYQAIVD [CCT7_Y263],0.882,0.85,0.818,0.773,1.06,1.73,0.734,2.21,1.68,1.67,0.794,0.936,0.836,0.807,0.465,0.816
DEYLEYRRIVG [FAM221A_Y20],1.12,0.51,1.07,1.03,0.968,1.14,0.38,0.881,0.859,0.91,1.06,0.615,1.07,0.762,0.547,1.03
ALAAPYVLFPS [CEFIP_Y1332_G1337S_YF],0.76,0.504,2.56,0.578,1.83,0.675,2.01,0.822,0.682,1.63,0.647,0.502,5,0.816,4.34,0.968
MNLLGYRQVRS [CHST4_Y359_H361Q],0.439,0.359,0.399,0.468,0.614,0.693,0.438,0.72,0.679,0.566,0.45,0.448,0.411,0.481,0.515,0.686
ATPKGYETDAS [OTC_Y223_P225T],0.502,0.416,0.54,0.44,0.616,0.735,0.421,0.743,0.622,0.667,0.438,0.543,0.524,0.596,0.56,0.866
SGDVQYRSSVR [FREM2_Y2158_T2153S],0.472,0.377,0.378,0.375,0.432,0.442,0.348,0.608,0.481,0.396,0.378,0.332,0.364,0.883,0.514,0.812
DMDATYRPMFS [JUP_Y701_YF],0.52,0.465,0.498,0.592,0.649,0.831,0.461,0.99,0.763,0.752,0.762,0.448,0.624,0.886,0.472,0.762
NKFTTYLPRLP [C9orf24_Y126_YF],0.437,0.36,0.47,0.477,0.503,0.568,0.42,0.784,0.482,0.666,0.507,0.445,0.425,1.02,0.824,0.927
DAPVVYLGSFG [PRAG1_Y132_R137G],0.389,0.475,0.491,0.514,0.623,0.863,0.437,0.851,0.671,0.776,0.631,0.579,0.507,6.03,0.479,0.646
DNLSNYVFQGQ [GRIN2A_Y978_N976S],2.09,0.416,0.571,0.475,0.611,0.71,0.618,0.796,0.546,0.783,0.41,1.22,0.454,0.818,0.601,0.904
VNFGAYINDFK [GLB1_Y488_YF],0.545,0.393,0.459,0.498,0.621,0.909,0.352,0.997,0.558,0.83,0.441,0.568,0.369,0.551,0.625,1.74
SKLTIYDARPS [MTM1_Y277],0.629,0.484,0.606,2.4,0.751,0.779,0.825,1.17,0.593,0.655,7.23,0.737,2.05,0.595,0.466,0.792
KSEFAYEIFDK [MYOM2_Y1024_L1022F],0.527,0.543,0.564,0.797,0.664,1.34,0.967,1.04,0.746,1.01,0.561,0.573,2.1,0.63,1.08,0.613
RVNSAYQEKVS [ACAN_Y100_D102E],0.413,0.313,0.678,0.378,0.423,0.407,0.5,0.667,0.489,0.538,0.49,0.397,0.291,0.529,0.448,1.08
